Source: the supplement of paper PMC7877785
± gives the uncertainty stated by the source.

Test: self-splicing fitness, log relative to wild type (ln ratio); higher = more splicing; Tetrahymena group I intron in knt gene, E. coli kanamycin selection, DiMSum; sequences stand for … in CUCUCU…GGAGGGAAAAGUUAUCAGGCAUGCACCUGGUAGCUAGUCUUUAAACCAAUAGAUUGCAUCGGUUUAAAAGGCAAGACCGUCAAAUUGCGGGAAAGGGGUCAACAGCCGUUCAGUACCAAGUCUCAGGGGAAACUUUGAGAUGGCCUUGCAAAGGGUAUGGUAAUAAGCUGACGGACAUGGUCCUAACCACGCAGCCAAGUCCUAAGUCAACAGAUCUUCUGUUGAUAUGGAUGCAGUUCACAGACUAAAUGUCGGUCGGGGAAGAUGUAUUCUUCUCAUAAGAUAUAGUCGGACCUCUCCUUAAUGGGAGCUAGCGGAUGAAGUGAUGCAACACUGGAGCCGCUGGGAACUAAUUUGUAUGCGAAAGUAUAUUGAUUAGUUUUGGAGUACUCGUGGUCG
Outline: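 DiMSum derived fitness as the error-weighted combination of fold changes across replicates, kanamycin versus no kanamycin, normalised to wild type. E. coli BL21(DE3) held the library, which randomised all eight P1ex-region intron nucleotides within the knt kanamycin-resistance gene on pET-22b(+). Six replicate transformations grew overnight at 37°C or 30°C on LB agar with or without 25 μg/mL kanamycin, also containing 100 μg/mL carbenicillin, 50 μM IPTG and 0.2% rhamnose, and pooled colonies were amplicon-sequenced on an Illumina HiSeq 2500.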

CCUGAGCAAUAUUACGCUAU
self-splicing fitness (ln) (30 °C): -3.66 ± 0.2 | self-splicing fitness (ln) (37 °C): -3.09 ± 0.19

CCUGAGCAAUAUUACGCUCA
self-splicing fitness (ln) (30 °C): -1.37 ± 0.28 | self-splicing fitness (ln) (37 °C): -1.94 ± 0.38

CCUGAGCAAUAUUACGCUGC
self-splicing fitness (ln) (30 °C): -4.04 ± 0.37 | self-splicing fitness (ln) (37 °C): -2.34 ± 0.22

CCUGAGCAAUAUUACGGAGA
self-splicing fitness (ln) (30 °C): -2.39 ± 0.25 | self-splicing fitness (ln) (37 °C): -3.09 ± 0.35

CCUGAGCAAUAUUACGGCAU
self-splicing fitness (ln) (30 °C): -3.93 ± 0.23 | self-splicing fitness (ln) (37 °C): -4.08 ± 0.42

CCUGAGCAAUAUUACGGUUU
self-splicing fitness (ln) (30 °C): -3.26 ± 0.2 | self-splicing fitness (ln) (37 °C): -2.38 ± 0.19

CCUGAGCAAUAUUACGUACG
self-splicing fitness (ln) (30 °C): -2.08 ± 0.2 | self-splicing fitness (ln) (37 °C): -1.24 ± 0.22

CCUGAGCAAUAUUACGUACU
self-splicing fitness (ln) (30 °C): -2.04 ± 0.21 | self-splicing fitness (ln) (37 °C): -2.3 ± 0.3

CCUGAGCAAUAUUACGUCCG
self-splicing fitness (ln) (30 °C): -3.25 ± 0.24 | self-splicing fitness (ln) (37 °C): -1.93 ± 0.33

CCUGAGCAAUAUUACGUCGA
self-splicing fitness (ln) (30 °C): -3.41 ± 0.42 | self-splicing fitness (ln) (37 °C): -3.34 ± 0.33

CCUGAGCAAUAUUACGUGUG
self-splicing fitness (ln) (30 °C): -1.62 ± 0.058 | self-splicing fitness (ln) (37 °C): -1.18 ± 0.066

CCUUAGCAAUAUUACGAAUG
self-splicing fitness (ln) (30 °C): -1.27 ± 0.11 | self-splicing fitness (ln) (37 °C): -0.423 ± 0.1

CCUUAGCAAUAUUACGAUUG
self-splicing fitness (ln) (30 °C): -1.85 ± 0.098 | self-splicing fitness (ln) (37 °C): -0.965 ± 0.1

CCUUAGCAAUAUUACGCAUU
self-splicing fitness (ln) (30 °C): -4.02 ± 0.46

CCUUAGCAAUAUUACGCCAG
self-splicing fitness (ln) (37 °C): -2.05 ± 0.45

CCUUAGCAAUAUUACGCCGA
self-splicing fitness (ln) (30 °C): -2.16 ± 0.35 | self-splicing fitness (ln) (37 °C): -1.98 ± 0.46

CCUUAGCAAUAUUACGCGCG
self-splicing fitness (ln) (30 °C): -2.71 ± 0.39 | self-splicing fitness (ln) (37 °C): -3.39 ± 0.42

CCUUAGCAAUAUUACGCGUU
self-splicing fitness (ln) (30 °C): -3.55 ± 0.21 | self-splicing fitness (ln) (37 °C): -2.12 ± 0.16

CCUUAGCAAUAUUACGCUGC
self-splicing fitness (ln) (30 °C): -2.81 ± 0.28

CCUUAGCAAUAUUACGCUUG
self-splicing fitness (ln) (30 °C): -3.86 ± 0.3 | self-splicing fitness (ln) (37 °C): -3.5 ± 0.37

CCUUAGCAAUAUUACGGAGG
self-splicing fitness (ln) (30 °C): -3.99 ± 0.41 | self-splicing fitness (ln) (37 °C): -3.11 ± 0.37

CCUUAGCAAUAUUACGGAGU
self-splicing fitness (ln) (30 °C): -3.24 ± 0.21 | self-splicing fitness (ln) (37 °C): -2.78 ± 0.19

CCUUAGCAAUAUUACGGCUG
self-splicing fitness (ln) (30 °C): -3.9 ± 0.19 | self-splicing fitness (ln) (37 °C): -2.39 ± 0.17

CCUUAGCAAUAUUACGGGCA
self-splicing fitness (ln) (30 °C): -3.91 ± 0.33 | self-splicing fitness (ln) (37 °C): -3.36 ± 0.35

CCUUAGCAAUAUUACGGGCG
self-splicing fitness (ln) (30 °C): -1.64 ± 0.083 | self-splicing fitness (ln) (37 °C): -0.95 ± 0.093

CCUUAGCAAUAUUACGGUAA
self-splicing fitness (ln) (30 °C): -2.78 ± 0.27 | self-splicing fitness (ln) (37 °C): -2.59 ± 0.35

CCUUAGCAAUAUUACGGUCU
self-splicing fitness (ln) (30 °C): -3.95 ± 0.25 | self-splicing fitness (ln) (37 °C): -3.77 ± 0.46

CCUUAGCAAUAUUACGGUUC
self-splicing fitness (ln) (30 °C): -2.91 ± 0.18 | self-splicing fitness (ln) (37 °C): -2.72 ± 0.39

CCUUAGCAAUAUUACGUCCG
self-splicing fitness (ln) (30 °C): -1.73 ± 0.11 | self-splicing fitness (ln) (37 °C): -0.989 ± 0.17

CCUUAGCAAUAUUACGUCGA
self-splicing fitness (ln) (37 °C): -2.67 ± 0.34

CCUUAGCAAUAUUACGUGCC
self-splicing fitness (ln) (30 °C): -4.23 ± 0.25 | self-splicing fitness (ln) (37 °C): -2.41 ± 0.28

CCUUAGCAAUAUUACGUUGA
self-splicing fitness (ln) (30 °C): -3.24 ± 0.21 | self-splicing fitness (ln) (37 °C): -3.02 ± 0.24

CCUUAGCAAUAUUACGUUUA
self-splicing fitness (ln) (30 °C): -3.23 ± 0.26 | self-splicing fitness (ln) (37 °C): -2.21 ± 0.2

CGAAAGCAAUAUUACGAAGA
self-splicing fitness (ln) (30 °C): -2.12 ± 0.16 | self-splicing fitness (ln) (37 °C): -0.849 ± 0.13

CGAAAGCAAUAUUACGAAUA
self-splicing fitness (ln) (30 °C): -2.47 ± 0.29 | self-splicing fitness (ln) (37 °C): -2.14 ± 0.2

CGAAAGCAAUAUUACGAAUC
self-splicing fitness (ln) (30 °C): -2.03 ± 0.45 | self-splicing fitness (ln) (37 °C): -1.87 ± 0.26

CGAAAGCAAUAUUACGACCU
self-splicing fitness (ln) (30 °C): -0.917 ± 0.079 | self-splicing fitness (ln) (37 °C): -0.386 ± 0.11

CGAAAGCAAUAUUACGAGGC
self-splicing fitness (ln) (30 °C): -3.72 ± 0.2 | self-splicing fitness (ln) (37 °C): -1.88 ± 0.21

CGAAAGCAAUAUUACGAUAC
self-splicing fitness (ln) (30 °C): -1.99 ± 0.18 | self-splicing fitness (ln) (37 °C): -2.11 ± 0.38

CGAAAGCAAUAUUACGCAUA
self-splicing fitness (ln) (30 °C): -3.13 ± 0.25 | self-splicing fitness (ln) (37 °C): -2.72 ± 0.2

CGAAAGCAAUAUUACGCCAG
self-splicing fitness (ln) (30 °C): -0.884 ± 0.14 | self-splicing fitness (ln) (37 °C): -0.307 ± 0.21

CGAAAGCAAUAUUACGCGCG
self-splicing fitness (ln) (30 °C): -2.64 ± 0.16 | self-splicing fitness (ln) (37 °C): -1.34 ± 0.17

CGAAAGCAAUAUUACGGGCU
self-splicing fitness (ln) (30 °C): -2.74 ± 0.14 | self-splicing fitness (ln) (37 °C): -1.55 ± 0.17

CGAAAGCAAUAUUACGGGUA
self-splicing fitness (ln) (30 °C): -2.73 ± 0.16 | self-splicing fitness (ln) (37 °C): -2.57 ± 0.14

CGAAAGCAAUAUUACGGUAG
self-splicing fitness (ln) (30 °C): -0.561 ± 0.065 | self-splicing fitness (ln) (37 °C): -0.437 ± 0.085

CGAAAGCAAUAUUACGGUUG
self-splicing fitness (ln) (30 °C): -0.623 ± 0.057 | self-splicing fitness (ln) (37 °C): -0.494 ± 0.073

CGAAAGCAAUAUUACGUACC
self-splicing fitness (ln) (30 °C): -1.18 ± 0.13 | self-splicing fitness (ln) (37 °C): -0.845 ± 0.2

CGAAAGCAAUAUUACGUAUG
self-splicing fitness (ln) (30 °C): -1.15 ± 0.057 | self-splicing fitness (ln) (37 °C): -0.533 ± 0.083
